According to PMC12455010:

How the values were obtained:
[1] = cell surface biotinylation, western blot; details: glycan lost
[2] = automated whole-cell patch clamp, inactivation width at +80 mV
[3] = glycan changed form, control: untreated
[4] = glycan changed form, control: low glucose

B1: rat Kv3.4 (rKv3.4): tunicamycin (protein)
parent chain: MISSVCVSSYRGRKSGNKPPSKTCLKEEMAKGEASEKIIINVGGTRHETYRSTLRTLPGTRLAWLADPDGGGRPESDGGGAGSSGSSGGGGGCEFFFDRHPGVFAYVLNYYRTGKLHCPADVCGPLFEEELTFWGIDETDVEPCCWMTYRQHRDAEEALDIFESPDGGGGGAGPGDEAGDDERELALQRLGPHEGGSGPGAGSGGCRGWQPRMWALFEDPYSSRAARVVAFASLFFILVSITTFCLETHEAFNIDRNVTEIHRVGNITSVRFRREVETEPILTYIEGVCVMWFTLEFLVRIVCCPDTLDFVKNLLNIIDFVAILPFYLEVGLSGLSSKAARDVLGFLRVVRFVRILRIFKLTRHFVGLRVLGHTLRASTNEFLLLIIFLALGVLIFATMIYYAERIGARPSDPRGNDHTDFKNIPIGFWWAVVTMTTLGYGDMYPKTWSGMLVGALCALAGVLTIAMPVPVIVNNFGMYYSLAMAKQKLPKKRKKHVPRPPQLESPIYCKSEETSPRDSTYSDTSPPAREEGMVERKRADSKQNGDANAVLSDEEGAGLTQPLASAPTPEERRALRRSGTRDRNKKAAACFLLSAGDYACADGSVQKEGSVEPKACVPVSHTCAL
With B1 the localisation_or_trafficking ([1]; control: untreated) was “no change” and the “other: channel inactivation delay and its heterogeneity” value ([2]; glycan lost, control: untreated) was “decreases”.

B2: rat Kv3.4 (rKv3.4): kifunensine (Kf) (protein)
parent chain: MISSVCVSSYRGRKSGNKPPSKTCLKEEMAKGEASEKIIINVGGTRHETYRSTLRTLPGTRLAWLADPDGGGRPESDGGGAGSSGSSGGGGGCEFFFDRHPGVFAYVLNYYRTGKLHCPADVCGPLFEEELTFWGIDETDVEPCCWMTYRQHRDAEEALDIFESPDGGGGGAGPGDEAGDDERELALQRLGPHEGGSGPGAGSGGCRGWQPRMWALFEDPYSSRAARVVAFASLFFILVSITTFCLETHEAFNIDRNVTEIHRVGNITSVRFRREVETEPILTYIEGVCVMWFTLEFLVRIVCCPDTLDFVKNLLNIIDFVAILPFYLEVGLSGLSSKAARDVLGFLRVVRFVRILRIFKLTRHFVGLRVLGHTLRASTNEFLLLIIFLALGVLIFATMIYYAERIGARPSDPRGNDHTDFKNIPIGFWWAVVTMTTLGYGDMYPKTWSGMLVGALCALAGVLTIAMPVPVIVNNFGMYYSLAMAKQKLPKKRKKHVPRPPQLESPIYCKSEETSPRDSTYSDTSPPAREEGMVERKRADSKQNGDANAVLSDEEGAGLTQPLASAPTPEERRALRRSGTRDRNKKAAACFLLSAGDYACADGSVQKEGSVEPKACVPVSHTCAL
In the case of B2, the “other: channel inactivation delay and its heterogeneity” value [2, 3] is reported as “decreases”.

B3: rat Kv3.4 (rKv3.4): swainsonine (Sw) (protein)
parent chain: MISSVCVSSYRGRKSGNKPPSKTCLKEEMAKGEASEKIIINVGGTRHETYRSTLRTLPGTRLAWLADPDGGGRPESDGGGAGSSGSSGGGGGCEFFFDRHPGVFAYVLNYYRTGKLHCPADVCGPLFEEELTFWGIDETDVEPCCWMTYRQHRDAEEALDIFESPDGGGGGAGPGDEAGDDERELALQRLGPHEGGSGPGAGSGGCRGWQPRMWALFEDPYSSRAARVVAFASLFFILVSITTFCLETHEAFNIDRNVTEIHRVGNITSVRFRREVETEPILTYIEGVCVMWFTLEFLVRIVCCPDTLDFVKNLLNIIDFVAILPFYLEVGLSGLSSKAARDVLGFLRVVRFVRILRIFKLTRHFVGLRVLGHTLRASTNEFLLLIIFLALGVLIFATMIYYAERIGARPSDPRGNDHTDFKNIPIGFWWAVVTMTTLGYGDMYPKTWSGMLVGALCALAGVLTIAMPVPVIVNNFGMYYSLAMAKQKLPKKRKKHVPRPPQLESPIYCKSEETSPRDSTYSDTSPPAREEGMVERKRADSKQNGDANAVLSDEEGAGLTQPLASAPTPEERRALRRSGTRDRNKKAAACFLLSAGDYACADGSVQKEGSVEPKACVPVSHTCAL
In the case of B3, the “other: channel inactivation delay and its heterogeneity” value [2, 3] is reported as “decreases”.

B4: rat Kv3.4 (rKv3.4): cytochalasin B (protein)
parent chain: MISSVCVSSYRGRKSGNKPPSKTCLKEEMAKGEASEKIIINVGGTRHETYRSTLRTLPGTRLAWLADPDGGGRPESDGGGAGSSGSSGGGGGCEFFFDRHPGVFAYVLNYYRTGKLHCPADVCGPLFEEELTFWGIDETDVEPCCWMTYRQHRDAEEALDIFESPDGGGGGAGPGDEAGDDERELALQRLGPHEGGSGPGAGSGGCRGWQPRMWALFEDPYSSRAARVVAFASLFFILVSITTFCLETHEAFNIDRNVTEIHRVGNITSVRFRREVETEPILTYIEGVCVMWFTLEFLVRIVCCPDTLDFVKNLLNIIDFVAILPFYLEVGLSGLSSKAARDVLGFLRVVRFVRILRIFKLTRHFVGLRVLGHTLRASTNEFLLLIIFLALGVLIFATMIYYAERIGARPSDPRGNDHTDFKNIPIGFWWAVVTMTTLGYGDMYPKTWSGMLVGALCALAGVLTIAMPVPVIVNNFGMYYSLAMAKQKLPKKRKKHVPRPPQLESPIYCKSEETSPRDSTYSDTSPPAREEGMVERKRADSKQNGDANAVLSDEEGAGLTQPLASAPTPEERRALRRSGTRDRNKKAAACFLLSAGDYACADGSVQKEGSVEPKACVPVSHTCAL
For B4, the “other: channel inactivation delay and its heterogeneity” value [2, 3] was “decreases”.

B5: rat Kv3.4 (rKv3.4): low-glucose medium (protein)
parent chain: MISSVCVSSYRGRKSGNKPPSKTCLKEEMAKGEASEKIIINVGGTRHETYRSTLRTLPGTRLAWLADPDGGGRPESDGGGAGSSGSSGGGGGCEFFFDRHPGVFAYVLNYYRTGKLHCPADVCGPLFEEELTFWGIDETDVEPCCWMTYRQHRDAEEALDIFESPDGGGGGAGPGDEAGDDERELALQRLGPHEGGSGPGAGSGGCRGWQPRMWALFEDPYSSRAARVVAFASLFFILVSITTFCLETHEAFNIDRNVTEIHRVGNITSVRFRREVETEPILTYIEGVCVMWFTLEFLVRIVCCPDTLDFVKNLLNIIDFVAILPFYLEVGLSGLSSKAARDVLGFLRVVRFVRILRIFKLTRHFVGLRVLGHTLRASTNEFLLLIIFLALGVLIFATMIYYAERIGARPSDPRGNDHTDFKNIPIGFWWAVVTMTTLGYGDMYPKTWSGMLVGALCALAGVLTIAMPVPVIVNNFGMYYSLAMAKQKLPKKRKKHVPRPPQLESPIYCKSEETSPRDSTYSDTSPPAREEGMVERKRADSKQNGDANAVLSDEEGAGLTQPLASAPTPEERRALRRSGTRDRNKKAAACFLLSAGDYACADGSVQKEGSVEPKACVPVSHTCAL
With B5 the “other: channel inactivation delay and its heterogeneity” value [2, 3] was “decreases”.

B6: rat Kv3.4 (rKv3.4): siGlut1 (protein)
parent chain: MISSVCVSSYRGRKSGNKPPSKTCLKEEMAKGEASEKIIINVGGTRHETYRSTLRTLPGTRLAWLADPDGGGRPESDGGGAGSSGSSGGGGGCEFFFDRHPGVFAYVLNYYRTGKLHCPADVCGPLFEEELTFWGIDETDVEPCCWMTYRQHRDAEEALDIFESPDGGGGGAGPGDEAGDDERELALQRLGPHEGGSGPGAGSGGCRGWQPRMWALFEDPYSSRAARVVAFASLFFILVSITTFCLETHEAFNIDRNVTEIHRVGNITSVRFRREVETEPILTYIEGVCVMWFTLEFLVRIVCCPDTLDFVKNLLNIIDFVAILPFYLEVGLSGLSSKAARDVLGFLRVVRFVRILRIFKLTRHFVGLRVLGHTLRASTNEFLLLIIFLALGVLIFATMIYYAERIGARPSDPRGNDHTDFKNIPIGFWWAVVTMTTLGYGDMYPKTWSGMLVGALCALAGVLTIAMPVPVIVNNFGMYYSLAMAKQKLPKKRKKHVPRPPQLESPIYCKSEETSPRDSTYSDTSPPAREEGMVERKRADSKQNGDANAVLSDEEGAGLTQPLASAPTPEERRALRRSGTRDRNKKAAACFLLSAGDYACADGSVQKEGSVEPKACVPVSHTCAL
With B6 the “other: channel inactivation delay and its heterogeneity” value ([2]; glycan changed form, control: siNeg) was “decreases”.

B7: rat Kv3.4 (rKv3.4): glucose recovery (protein)
parent chain: MISSVCVSSYRGRKSGNKPPSKTCLKEEMAKGEASEKIIINVGGTRHETYRSTLRTLPGTRLAWLADPDGGGRPESDGGGAGSSGSSGGGGGCEFFFDRHPGVFAYVLNYYRTGKLHCPADVCGPLFEEELTFWGIDETDVEPCCWMTYRQHRDAEEALDIFESPDGGGGGAGPGDEAGDDERELALQRLGPHEGGSGPGAGSGGCRGWQPRMWALFEDPYSSRAARVVAFASLFFILVSITTFCLETHEAFNIDRNVTEIHRVGNITSVRFRREVETEPILTYIEGVCVMWFTLEFLVRIVCCPDTLDFVKNLLNIIDFVAILPFYLEVGLSGLSSKAARDVLGFLRVVRFVRILRIFKLTRHFVGLRVLGHTLRASTNEFLLLIIFLALGVLIFATMIYYAERIGARPSDPRGNDHTDFKNIPIGFWWAVVTMTTLGYGDMYPKTWSGMLVGALCALAGVLTIAMPVPVIVNNFGMYYSLAMAKQKLPKKRKKHVPRPPQLESPIYCKSEETSPRDSTYSDTSPPAREEGMVERKRADSKQNGDANAVLSDEEGAGLTQPLASAPTPEERRALRRSGTRDRNKKAAACFLLSAGDYACADGSVQKEGSVEPKACVPVSHTCAL
In the case of B7, the “other: channel inactivation delay and its heterogeneity” value [2, 4] is reported as “increases”.

B8: rat Kv3.4 (rKv3.4): mannose recovery (protein)
parent chain: MISSVCVSSYRGRKSGNKPPSKTCLKEEMAKGEASEKIIINVGGTRHETYRSTLRTLPGTRLAWLADPDGGGRPESDGGGAGSSGSSGGGGGCEFFFDRHPGVFAYVLNYYRTGKLHCPADVCGPLFEEELTFWGIDETDVEPCCWMTYRQHRDAEEALDIFESPDGGGGGAGPGDEAGDDERELALQRLGPHEGGSGPGAGSGGCRGWQPRMWALFEDPYSSRAARVVAFASLFFILVSITTFCLETHEAFNIDRNVTEIHRVGNITSVRFRREVETEPILTYIEGVCVMWFTLEFLVRIVCCPDTLDFVKNLLNIIDFVAILPFYLEVGLSGLSSKAARDVLGFLRVVRFVRILRIFKLTRHFVGLRVLGHTLRASTNEFLLLIIFLALGVLIFATMIYYAERIGARPSDPRGNDHTDFKNIPIGFWWAVVTMTTLGYGDMYPKTWSGMLVGALCALAGVLTIAMPVPVIVNNFGMYYSLAMAKQKLPKKRKKHVPRPPQLESPIYCKSEETSPRDSTYSDTSPPAREEGMVERKRADSKQNGDANAVLSDEEGAGLTQPLASAPTPEERRALRRSGTRDRNKKAAACFLLSAGDYACADGSVQKEGSVEPKACVPVSHTCAL
For B8, the “other: channel inactivation delay and its heterogeneity” value [2, 4] was “increases”.

B9: rat Kv3.4 (rKv3.4): N257/266Q (protein)
parent chain: MISSVCVSSYRGRKSGNKPPSKTCLKEEMAKGEASEKIIINVGGTRHETYRSTLRTLPGTRLAWLADPDGGGRPESDGGGAGSSGSSGGGGGCEFFFDRHPGVFAYVLNYYRTGKLHCPADVCGPLFEEELTFWGIDETDVEPCCWMTYRQHRDAEEALDIFESPDGGGGGAGPGDEAGDDERELALQRLGPHEGGSGPGAGSGGCRGWQPRMWALFEDPYSSRAARVVAFASLFFILVSITTFCLETHEAFNIDRNVTEIHRVGNITSVRFRREVETEPILTYIEGVCVMWFTLEFLVRIVCCPDTLDFVKNLLNIIDFVAILPFYLEVGLSGLSSKAARDVLGFLRVVRFVRILRIFKLTRHFVGLRVLGHTLRASTNEFLLLIIFLALGVLIFATMIYYAERIGARPSDPRGNDHTDFKNIPIGFWWAVVTMTTLGYGDMYPKTWSGMLVGALCALAGVLTIAMPVPVIVNNFGMYYSLAMAKQKLPKKRKKHVPRPPQLESPIYCKSEETSPRDSTYSDTSPPAREEGMVERKRADSKQNGDANAVLSDEEGAGLTQPLASAPTPEERRALRRSGTRDRNKKAAACFLLSAGDYACADGSVQKEGSVEPKACVPVSHTCAL
In the case of B9, the localisation_or_trafficking ([1]; control: wild type) is reported as “no change”.
